First the molecules themselves.
B1: P2D9 monoclonal antibody (IgG) (antibody, V domains shown)
VH: EVQLVESGAEVKKPGSSVKVSCKASGDTFYTFDISWVRQAPGQGLEWMGGISPVFDAPNYAQKFQDRVTITADKSTSTAYMELSSLRSEDTAIYYCVKPTYSNYVWGIGAFDVWGQGTTVTVSS
VL: EIVLTQSPGTLSLSPGERATLSCRASQSVGNIYLAWYQQKPGQAPRLLIYGASTRATGIPDRFSGSGSGTDFTLTISRLEPEDFAVYYCQQYGDSLWTFGQGTKVEIK
B2: P2B4 monoclonal antibody (IgG) (antibody, V domains shown)
VH: EVQLVESGGGLVQPGRSLRLSCAASGFNFDDYAMHWARQVPGKGLEWVSGISGNSGSVEYADSVKGRFAMSRDNAKNSLYLEMNSLRTEDTALYYCAKETTPWGIYRSGGLDVWGQGTTVTVSS
VL: DIQMTQSPSSLSASVGDRVTITCRASQSIHSFLSWYQQKPGKAPKLLINSASTLQSGVPPWFSGSGSGTDFTLTISSLQPEDFATYYCQQSYIAPWTFGQGTKVEIK
B3: P3E6 monoclonal antibody (IgG) (antibody, V domains shown)
VH: EVQLLDSGGGLVQPGGSLRLSCAVSGFTFSNYAMNWVRQTPGKELEWVSAISGTGDDTHYADSVRGRFTISSDNSKNTVYLQMNSLRVEDTAIYYCAKAISRYPWGCLDYWGQGTLVTVSS
VL: not shown
B4: P1D9 monoclonal antibody (IgG) (antibody, V domains shown)
VH: EVQLVQSGAEVKKPGSSVRVSCKASGGTFGDDSITWVRQAPGQGLEWMGGIFPLIGKTHYAQRFQGRLTVTADKSTSTAYMELSGLRSEDTAIYYCARDWGTTLTAFDIWGQGTMVTVSS
VL: DIQMTQSPSSLSASVGDTVTITCRAGQTINTFLNWYQQKPGKAPKLLIYAASTLQSGVPSRFSGSGSGTDFTLTINSLQPEDFATYYCQQSYSNLYTFSQGTKVEIK

One test concerns the target T1, SARS-CoV-2 WT RBD protein (Sino Biological) (SARS-CoV-2, UniProt P0DTC2 319-541). Kind of test: SPR. (In general: Surface plasmon resonance follows binding to a sensor surface in real time, without labels.)
On to B1, for which the koff came out at 4.34e-05 s⁻¹.
The same measure, in the same setting: the same measure for B2: 1.37e-05 s⁻¹; for B3: 0.00014 s⁻¹.
On the same count and under the same terms, the figure for B4 is 7.68e-05 s⁻¹.

The target of another test is T1, SARS-CoV-2 WT RBD protein (Sino …). The test is described as follows: SPR. This is another data set of the same source.
As to B1, binding was put at a Kd of 0.202 nM.
The same measure, in the same setting: the same measure for B2: 0.143 nM; for B3: 0.558 nM; for B4: 0.188 nM.

As a reminder, the koff is the rate constant with which the complex falls apart. Low values mean a long-lived complex, high ones a short-lived complex. A word on the Kd: it is the equilibrium constant for the complex coming apart. Read a high Kd as lower affinity.

These data come from paper PMC9817130 (2023).
